For 1 sequence, Kd results are on record in paper PMC4982613.

Test in all cases: EMSA
In general terms: In EMSA bound probe runs differently from free probe, usually more slowly.

Data set [1] concerns the target NEIL1 TA S207A;S306A;S61A (human) (UniProt Q96FI4). Conditions: tetrahydrofuran (abasic site analog) at position 14 of strand 1 (N), opposite C; EMSA: 10 pM 32P-DNA, 0-600 nM enzyme, 10% native PAGE, 2 h at 10 mA; binding buffer, salt, pH and temperature not stated; one-site specific binding fit (Prism …).
Data set [2] has as its target NEIL1 S61E S61E (human) (UniProt Q96FI4). Conditions: tetrahydrofuran (abasic site analog) at position 14 of strand 1 (N), opposite C; EMSA: 10 pM 32P-DNA, 0-600 nM enzyme, 10% native PAGE, 2 h at 10 mA; binding buffer, salt, pH and temperature not stated; one-site specific binding fit (Prism …).
In data set [3] the target is NEIL1 S207A S207A (human) (UniProt Q96FI4). Conditions: multiple complexes (C1+C2+C3) quantified; tetrahydrofuran (abasic site analog) at position 14 of strand 1 (N), opposite C; EMSA: 10 pM 32P-DNA, 0-600 nM enzyme, 10% native PAGE, 2 h at 10 mA; binding buffer, salt, pH and temperature not stated; one-site specific binding fit (Prism …).
NEIL1 S207A S207A (human), sequence (Q96FI4 whole entry S207A): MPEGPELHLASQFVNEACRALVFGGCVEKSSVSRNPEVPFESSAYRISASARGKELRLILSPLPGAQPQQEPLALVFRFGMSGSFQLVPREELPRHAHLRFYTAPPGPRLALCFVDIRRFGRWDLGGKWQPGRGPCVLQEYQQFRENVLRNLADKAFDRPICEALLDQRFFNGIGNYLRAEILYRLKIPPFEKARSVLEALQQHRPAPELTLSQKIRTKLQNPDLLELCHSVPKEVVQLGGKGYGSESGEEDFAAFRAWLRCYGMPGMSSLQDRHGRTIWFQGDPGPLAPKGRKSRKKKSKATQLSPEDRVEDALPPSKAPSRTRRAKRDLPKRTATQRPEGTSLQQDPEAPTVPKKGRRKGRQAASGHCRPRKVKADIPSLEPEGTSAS
In data set [4] the target is NEIL1 WT (human) (UniProt Q96FI4). Particulars: tetrahydrofuran (abasic site analog) at position 14 of strand 1 (N), opposite C; EMSA: 10 pM 32P-DNA, 0-600 nM enzyme, 10% native PAGE, 2 h at 10 mA; binding buffer, salt, pH and temperature not stated; one-site specific binding fit (Prism …).
NEIL1 WT (human), sequence (Q96FI4 whole entry): as the sequence (Q96FI4 whole entry S207A) above, with A207S counted along it
Data set [5] addresses NEIL1 DE S207E;S306E (human) (UniProt Q96FI4). Conditions: tetrahydrofuran (abasic site analog) at position 14 of strand 1 (N), opposite C; EMSA: 10 pM 32P-DNA, 0-600 nM enzyme, 10% native PAGE, 2 h at 10 mA; binding buffer, salt, pH and temperature not stated; one-site specific binding fit (Prism …).
Data set [6] deals with NEIL1 DA S207A;S306A (human) (UniProt Q96FI4). Conditions: tetrahydrofuran (abasic site analog) at position 14 of strand 1 (N), opposite C; EMSA: 10 pM 32P-DNA, 0-600 nM enzyme, 10% native PAGE, 2 h at 10 mA; binding buffer, salt, pH and temperature not stated; one-site specific binding fit (Prism …).
NEIL1 DA S207A;S306A (human), sequence (Q96FI4 whole entry S207A/S306A): as the sequence (Q96FI4 whole entry S207A) above, with S306A counted along it
The target of data set [7] is NEIL1 S61A S61A (human) (UniProt Q96FI4). Particulars: tetrahydrofuran (abasic site analog) at position 14 of strand 1 (N), opposite C; EMSA: 10 pM 32P-DNA, 0-600 nM enzyme, 10% native PAGE, 2 h at 10 mA; binding buffer, salt, pH and temperature not stated; one-site specific binding fit (Prism …).
NEIL1 S61A S61A (human), sequence (Q96FI4 whole entry S61A): as the sequence (Q96FI4 whole entry S207A) above, with S61A, A207S counted along it
Data set [8] deals with NEIL1 TE S207E;S306E;S61E (human) (UniProt Q96FI4). Conditions: upper bands may lower Kd; tetrahydrofuran (abasic site analog) at position 14 of strand 1 (N), opposite C; EMSA: 10 pM 32P-DNA, 0-600 nM enzyme, 10% native PAGE, 2 h at 10 mA; binding buffer, salt, pH and temperature not stated; one-site specific binding fit (Prism …).
NEIL1 TE S207E;S306E;S61E (human), sequence (Q96FI4 whole entry S61E/S207E/S306E): as the sequence (Q96FI4 whole entry S207A) above, with S61E, A207E, S306E counted along it
The target of data set [9] is NEIL1 S306E S306E (human) (UniProt Q96FI4). Conditions: tetrahydrofuran (abasic site analog) at position 14 of strand 1 (N), opposite C; EMSA: 10 pM 32P-DNA, 0-600 nM enzyme, 10% native PAGE, 2 h at 10 mA; binding buffer, salt, pH and temperature not stated; one-site specific binding fit (Prism …).
NEIL1 S306E S306E (human), sequence (Q96FI4 whole entry S306E): as the sequence (Q96FI4 whole entry S207A) above, with A207S, S306E counted along it
Data set [10] deals with NEIL1 S306A S306A (human) (UniProt Q96FI4). Conditions: upper bands may lower Kd; tetrahydrofuran (abasic site analog) at position 14 of strand 1 (N), opposite C; EMSA: 10 pM 32P-DNA, 0-600 nM enzyme, 10% native PAGE, 2 h at 10 mA; binding buffer, salt, pH and temperature not stated; one-site specific binding fit (Prism …).
NEIL1 S306A S306A (human), sequence (Q96FI4 whole entry S306A): as the sequence (Q96FI4 whole entry S207A) above, with A207S, S306A counted along it
The target of data set [11] is NEIL1 S207E S207E (human) (UniProt Q96FI4). Conditions: tetrahydrofuran (abasic site analog) at position 14 of strand 1 (N), opposite C; EMSA: 10 pM 32P-DNA, 0-600 nM enzyme, 10% native PAGE, 2 h at 10 mA; binding buffer, salt, pH and temperature not stated; one-site specific binding fit (Prism …).
NEIL1 S207E S207E (human), sequence (Q96FI4 whole entry S207E): as the sequence (Q96FI4 whole entry S207A) above, with A207E counted along it

NEIL1 S61E S61E (human), sequence (Q96FI4 whole entry S61E): as the sequence (Q96FI4 whole entry S207A) above, with S61E, A207S counted along it
NEIL1 DE S207E;S306E (human), sequence (Q96FI4 whole entry S207E/S306E): as the sequence (Q96FI4 whole entry S207A) above, with A207E, S306E counted along it
NEIL1 TA S207A;S306A;S61A (human), sequence (Q96FI4 whole entry S61A/S207A/S306A): as the sequence (Q96FI4 whole entry S207A) above, with S61A, S306A counted along it

Regarding “TGTCAATAGCAAGNGGAGAAGTCAATCGTGAGTCT / AGACTCACGATTGACTTCTCCCCTTGCTATTGACA [35-mer Furan:C duplex]”, the Kd in data set [1] was 13.2 nM; in [2] it was 19.6 nM; in [3] it was 3.2 nM; in data set [4], 23 nM; in data set [5] it was 15 nM; in data set [6], 10.8 nM. Besides, the Kd in data set [7] is 16.2 nM; in data set [8], 1.3 nM; in data set [9], 7.8 nM; in data set [10], 2.3 nM; in [11], 4.5 nM.

What is called Kd is the equilibrium constant for the complex coming apart.
